Results published in patent publication US20160168251A1 (MorphoSys, published 2016).
Changes are numbered by the printed parent chain.

Assays:
[1] = molecular target: T1, human NPRA on HEK293 cells bound to ANP (human, UniProt P01160 124-151); assay: KinExA whole cell binding (Kd,app), HEK cells with human NPRA, ANP bound, 75 and 200 pM IgG
T1 construct: mature; Receptor-ligand complex on cells; also called HEK NPRA cells loaded with ANP; ANP-NPRA complex
T1 sequence: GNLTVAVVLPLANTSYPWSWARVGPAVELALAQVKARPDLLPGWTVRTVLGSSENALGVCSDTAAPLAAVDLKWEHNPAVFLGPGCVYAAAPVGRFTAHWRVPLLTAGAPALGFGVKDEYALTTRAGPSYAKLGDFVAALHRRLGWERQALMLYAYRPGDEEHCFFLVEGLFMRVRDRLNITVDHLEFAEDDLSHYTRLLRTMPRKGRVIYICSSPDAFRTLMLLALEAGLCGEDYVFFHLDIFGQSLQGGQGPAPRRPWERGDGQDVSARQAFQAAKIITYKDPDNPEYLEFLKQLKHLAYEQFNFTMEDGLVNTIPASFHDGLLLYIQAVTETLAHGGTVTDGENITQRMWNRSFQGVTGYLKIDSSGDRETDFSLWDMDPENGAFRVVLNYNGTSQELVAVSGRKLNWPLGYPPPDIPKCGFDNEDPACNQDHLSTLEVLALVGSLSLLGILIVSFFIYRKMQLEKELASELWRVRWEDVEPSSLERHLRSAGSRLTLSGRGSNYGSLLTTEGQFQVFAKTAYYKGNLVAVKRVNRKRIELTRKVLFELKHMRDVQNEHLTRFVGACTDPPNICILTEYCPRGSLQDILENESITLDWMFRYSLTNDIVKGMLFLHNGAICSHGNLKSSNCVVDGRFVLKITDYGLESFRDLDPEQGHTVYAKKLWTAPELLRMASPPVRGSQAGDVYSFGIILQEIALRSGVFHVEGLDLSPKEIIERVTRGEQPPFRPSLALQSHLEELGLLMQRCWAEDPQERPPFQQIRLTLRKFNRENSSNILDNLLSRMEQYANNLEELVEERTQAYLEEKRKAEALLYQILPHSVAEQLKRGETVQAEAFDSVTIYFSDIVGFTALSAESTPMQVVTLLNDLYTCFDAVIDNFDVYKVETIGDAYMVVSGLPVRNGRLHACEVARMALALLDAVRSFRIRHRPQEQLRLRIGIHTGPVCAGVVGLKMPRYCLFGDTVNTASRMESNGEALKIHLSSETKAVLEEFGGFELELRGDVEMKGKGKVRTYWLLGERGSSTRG
T1 sequence (peptide): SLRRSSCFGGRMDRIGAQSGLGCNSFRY
Method: (§1) Initial species cross-reactivity studies are performed using HEK cell lines overexpressing rat, canine and rhesus monkey NPRA. […] These apparent Kd values are obtained by globally fitting the data for two antibody concentrations.

[2] = molecular target: T2, rhesus monkey NPRA on HEK cells bound to ANP (rhesus monkey, UniProt F7HE88 33-1061; P01160 124-151, chain 2: ANP is cyclic, its 17-residue ring closed by a disulfide bond between its two cysteines); assay: KinExA whole cell binding (Kd,app), HEK cells with rhesus NPRA, ANP bound
T2 construct: also called Rhesus NPRA
T2 sequence: T1 sequence with Q33R, V80A, D284E, Y302R, N385T, G453S, V663L, V690I
T2 sequence (peptide): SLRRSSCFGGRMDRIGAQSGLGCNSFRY
Method: as §1

B1: 5591 IgG4_Pro (antibody, V domains shown)
VH: QVQLQQSGPGLVKPSQTLSLTCAISGDSVSSRSASWSWIRQSPGRGLEWLGRTYYRSHWYYEYAQSVKSRITINPDTSKNQFSLQLNSVTPEDTAVYYCARMDVPSFRYFDVWGQGTLVTVSS
VL: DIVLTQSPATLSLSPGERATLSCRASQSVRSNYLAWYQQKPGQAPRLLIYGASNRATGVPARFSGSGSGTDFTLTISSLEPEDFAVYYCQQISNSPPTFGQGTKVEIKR
- Kd [1]: 0.59 nM
- Kd [2]: 0.266 nM
